The source of these data is patent US20230193248A1.

For data set [1], the target named is T1, M15-K(biotin)-AAR (SEQ ID NO: 8) peptide.
T1 chain: KAAR

The target of data set [2] is M15-L-P1 target polypeptide, P1 = A.
Data set [3] concerns the target M15-L-P1 target polypeptide, P1 = I.
In data set [4] the target is M15-L-P1 target polypeptide, P1 = L.
The target of data set [5] is M15-L-P1 target polypeptide, P1 = M.
For data set [6], the target named is M15-L-P1 target polypeptide, P1 = Q.
The target of data set [7] is M15-L-P1 target polypeptide, P1 = V.

B1: engineered dipeptidyl peptidase clone (SEQ ID NO: 11) derived from dipeptidyl peptidase from Thermomonas hydrothermalis (SEQ ID NO: 10) (protein)
chain: DEGMWVPQQLPEIAGALKKAGLKLDPKQLSDLTGDPMGAVVSLGGCTGSFVSPQGLVATNHHCAYGAIQLNSTPEKNLIKDGFNAPTQADELSAGPNARIYVLEGITDVTAQAKAAMAAAGNDPVARANALEAFEKKITSDCEAEPGYRCRVYSFMGGITYRLFKNLEIKDVRLVYAPPSSVGKFGGDIDMGMWPTHTGDFSFYRAYVGKDGKPAPYSKDNVPYRPKHWLKIADTPLGEGDFVMVAGYPGRTDRYALVAEFENTQNWLYPAISKAYKDQIALVEAAAKDNPEIAVKYAAALAGWNRTSKNFDGQLEGFKRNDVLAIKRREEAAVLEWLRARGKAGTPALEAHAALVKLVADTARTQERDLVLGSFNRTGIIGVAVNLYRLAIERQKPDAEREPGYQQRDLPVIEGSLKQMERRYVPAMDRQLRAYWLDRYVALPAAQHVAAVDAWLGGSDKAAAEAALARLDQSRLGSLEERLKWFNADRAAFEASTDPAIQYAVAVMPTLLAMEQQAKTRYGVALEARPRYLQAVVDYKKSKGQAVYPDANSTLRITYGHVKGYTGLNGKVYTPFTTLEEVAAKETGVEPFDNPKALLEAVAAKRYAGLADARLGTVPVNFLADLDITGGNSGSPVLDANGRLVGLAFAVTLESVASNWVFDPVLTRMISVDQRYMRWIMQEVMPAPQLLEELGVPPRQ
For the protein B1, the “percentage of conversion to cleavage product M15-K(biotin)-A (HPLC, UV absorbance at 254 nm)” value in data set [1] was “about 10% of the model peptide was converted to the cleavage product, M15-K(biotin)-A”.

B2: first selected modified cleavase (M15-L Z001) (protein)
chain: MHKTRLVAALAAALATLAPAAWADEGMWVPQQLPEIAGALKKAGLKLDPKQLSDLTGDPMGAVVSLGGCTGSFVSPQGLVATNHHCAYGAIQLNSTPEKNLIKDGFNAPTQADELSAGPNARIYVLEGITDVTAQAKAAMAAAGNDPVARANALEAFEKKITSDCEAEPGYRCRVYSFMGGITYRLFKNLEIKDVRLVYAPPSSVGKFGGDIDMGMWPTHTGDFSFYRAYVGKDGKPAPYSKDNVPYRPKHWLKIADTPLGEGDFVMVAGYPGRTDRYALVAEFENTQNWLYPAISKAYKDQIALVEAAAKDNPEIAVKYAAALAGWNRTSKNFDGQLEGFKRNDVLAIKRREEAAVLEWLRARGKAGTPALEAHAALVKLVADTARTQERDLVLGSFNRTGIIGVAVNLYRLAIERQKPDAEREPGYQQRDLPVIEGSLKQMERRYVPAMDRQLRAYWLDRYVALPAAQHVAAVDAWLGGSDKAAAEAALARLDQSRLGSLEERLKWFNADRAAFEASTDPAIQYAVAVMPTLLAMEQQAKTRYGVALEARPRYLQAVVDYKKSKGQAVYPDANSTLRITYGHVKGYTGLNGKVYTPFTTLEEVAAKETGVEPFDNPKALLEAVAAKRYAGLADARLGTVPVNFLADLDITGGNSGSPVLDANGRLVGLAFAGTLESVASNWVFDPVLTRMISVDQRYMRWIMQEVMPAPQLLEELGVPPRQ
As to B2, the “cleavage of single labeled NTAA” value in data set [2], in data set [3], in data set [4], in data set [5], in data set [6] and in data set [7] was “provided 100% cleavage” in each case.
